“And” between values parts separate entries of the source, which are not always exact repeats. Equal entries are not always repeated. “Also recorded” adds a separate entry of the source.
Tests used:
[1] = test system: Sprague-Dawley rats; assay: Phosphaturic response (clearance studies) in rats; type: in vivo
Experimental: Phosphaturic response. Normal female Sprague-Dawley rats weighing 225 to 250 g were prepared for clearance studies under light anesthesia. Polyethylene catheters (PE50) were placed in the femoeral artery for the collection of blood and measurement of blood pressure (Blood Pressure Analyzer; Micro-Medic, Inc., Louisville, Ky., USA), in the femoral vein for infusion and in the bladder for the collection of urine. Rats were placed in Plexiglas® holders and allowed to recover from the effect of the anesthetic for one hour. A priming dose (0.6 mL) of chemical inulin in saline was administered over a period of three minutes to achieve a plasma inulin level between […]. A solution of saline containing inulin to maintain this level and calcium gluconate to deliver 0.5 mg. Calcium was infused at the rate of 0.03 mL/min. After equilibration, a total of four 30-minute urine collections was obtained.
To assess the effect of hPTH 1-84 on phosphate excretion, urine was collected during two control periods, after which rats received a priming bolus of 1.8 μg of hPTH 1-84 followed by a sustained infusion that delivered a total of 8.2 μg of I-PTH. After an equilibration period of 20 minutes, two 30-minute urine collections were obtained. […]
Blood samples and blood pressure measurements were recorded at the beginning and end of the baseline period, at the beginning of the PTH infusion period, and at the end of the study. The concentration of inulin in plasma and urine was determined by the method of Fuhr, Kaczmarczyk, and Kruttgen, Klin Wochenschr, 33:729-730 (1955). The estimation of the glomerular filtration rate (GFR) by inulin clearance and the calculation of the fractional urinary excretion rate of phosphorus (FEP04) were performed in the standard fashion. Blood samples were centrifuged, and plasma phosphorus and calcium concentrations were measured.

[2] = test system: Whole PTH assay (goat antibodies to PTH 39-84 and to the first six amino acids of human PTH); assay: Whole PTH IRMA assay, recognition of hPTH 1-84 vs hPTH 7-84; type: binding; details: hPTH 7-84 at a concentration as high as 10,000 pg/mL
Experimental: Another method would be to couple the initial wPTH sequence antibody to colloidal solid supports, such as latex particles. More specifically, one can create a signal antibody by iodinating 50 micrograms of affinity purified goat anti-(1-6) PTH antibody (Scantibodies Laboratory, Inc., Santee Calif., U.S.A.) by oxidation with chloramine T, incubation for 25 seconds at room temperature with 1 millicurie of 125-1 radioisotope and reduction with sodium metabisulfate. […] The fractions collected from the desalting column are measured in a gamma counter and those fractions representing the 125-1-goat anti-(1-6) PTH antibody are pooled and diluted to approximately 300,000 D PM (disintegrations per minute) per 100 microliters. […]
To conduct a whole PTH assay of a sample, 200 microliter samples of human serum are added to the solid phase antibody coated tubes. […] Radioactivity on the solid phase, which amount corresponds to the quantity of wPTH present, is measured using a gamma counter. The radioactivity data for the samples is processed by conventional analysis with use of the results from standards and controls and computer software in order that the concentration of whole PTH in the samples may be ascertained. […]

[3] = test system: ROS/17.2 cells; assay: cAMP production in osteoblastic cell line ROS/17.2; type: cell-based, rat; details: for effect on cAMP production: 10^-11 to 10^-8 mol/L, no-effect statement at 10^-8 mol/L
Experimental: Osteoblastic cell line. To compare the biological effects of the two peptides (hPTH 1-84 and 7-84), intracellular cAMP production was measured in the rate osteosarcoma cell line ROS/17.2, which has an osteoblastic phenotype and is known to increase cAMP production in response to PTH. Cells were cultured in Ham's F12 media containing 10% fetal bovine serum. Cells were plated out in 12-well plates at a density of 30,000 cells per well and grown to confluence. Cells were washed three times with KHMS buffer at 37° C. (KCI 4.0 mmol/L, CaCl2 1.25 mmol/L, MgSO4 1.25 mmol/L, KH2PO4 1.2 mmol/L, HEPES 10 mmol/L, NaCl 100 mmol/L, NaHCO3 37 mmol/L, and glucose 10 mmol/L, pH 7.5). cAMP production was measured using 500 μL of KHMS buffer (37°) containing isobutyl-1 methylxantine (IBMX) 1.0 mmol/L and various concentrations (10^−11 to 10^−8 mol/L) of hPTH 1-84 or hPTH 7-84. After a five-minute incubation, 100 μL of 1.8 mol/L pechloric acid were added. After an additional five-minute incubation at room temperature, 100 μL of 3 mol/KHCO3 were added to neutralize the acid. Samples were centrifuged at 3000 rpm for 15 minutes, and the supernatants were assayed for cAMP [26].

[4] = test system: PTX rats; assay: Calcemic response in parathyroidectomized (PTX) rats; type: in vivo, Sprague-Dawley rats
Experimental: Calcemic response. Normal female Sprague-Dawley rats weighing 225 to 250 g (Harlan, Indianapolis, Ind., USA) were parathyroidectomized (PTX) and fed a 0.02% calcium diet. Rats with a plasma calcium below 7.0 mg/dL after overnight fasting were included in the study. A 20 μg dose of hPTH 1-84 or 7-84 was given intraperitoneally to PTX rats in four doses of 5 μg each at 30-minute intervals (0, 30, 60, and 90 minutes). For control studies, the rats received vehicle (saline solution) alone. Blood was drawn via the tail at 0, 60, 90, and 120 minutes. For competition experiments, rats received an injection of hPTH 7-84 10 minutes prior to each injection of hPTH 1-84. The molar ratio of hPTH 7-84/hPTH 1-84 was 1:1.
Total plasma calcium levels were determined using an atomic absorption spectrophotometer (model 1100B; Perkin Elmer, Norwalk, Conn., USA). Plasma phosphorus levels were determined using an autoanalyzer (COBAS MIRA Plus; Roche, Newark, N.J., USA).

[5] = test system: Nichols Intact PTH assay; assay: Nichols Intact (I-Nichols) PTH assay, recognition of hPTH 1-84 vs hPTH 7-84; type: binding; details: compared with hPTH 1-84
From the text: The present whole IRMA assay was compared to a conventional intact PTH or I-PTH immunoassay, the Allegro Nichols Intact-PTH assay, (which is commercially available and made by Nichols Institute Diagnostics of San Juan Capistrano, Calif., U.S.A.), in both PTH normal persons and those suffering from chronic uremia. This I-PTH immunoassay, detects both PTH7-84 and wPTH (see FIG. 10).
This new Whole PTH two-site assay (Scantibodies Laboratories, Santee, Calif., USA) first employees and antibody that recognizes the 39-84 region of the PTH molecule. This antibody, produced in a goat and affinity purified, is present in relative excess and is immobilized onto polystyrene-coated tubes. The second antibody, also developed in a goat, was also affinity purified and recognizes only the first six amino acids (1 to 6; Ser-Val-Ser-Glu-Ile-Gln) of the human PTH molecule (FIG. 1). This anti-hPTH assay uses synthetic human PTH 1-84 as the standard, with a limit of detection of approximately 1 to 2 pg/mL. Normal values range from 5 to 35 pg/mL. […] The Whole PTH assay was compared with the Intact PTH assay purchases from the Nichols Institute (I-Nichols, San Jan Capistrano, Calif., USA). Synthetic human PTH 1-84 and 7-84 were purchased from Bachem (Torrance, Calif. USA). To assess circulating levels of hPTH 1-84 and non-(1-84) PTH, heparinized blood samples were obtained before dialysis from 28 patients who had been maintained on chronic hemodialysis for 1.2 to 7.5 years and from 14 renal transplant patients (1 to 6 years).

| Molecule | glomerular filtration rate (GFR), treatment period ([1]; rats infused with hPTH 1-84 alone, control period 1.8±0.3, N=10) | fractional excretion of phosphate (FEP04), treatment period ([1]; rats infused with hPTH 1-84 alone, increased from 11.9±2.4, N=10, P<0.001) | detection by the Whole PTH assay [2] | intracellular cAMP after treatment ([3]; 10^-8 mol/L peptide, five-minute incubation, increased from 18.1±1.25 nmol/well, N=6) | effect on cAMP production [3] | increase in plasma calcium ([4]; PTX rats fed a 0.02% calcium diet, 20 μg intraperitoneally in four doses of 5 μg, N=9, P<0.001) | recognition by the Nichols Intact PTH assay [5] | recognition by the Nichols Intact PTH assay ([5]; listed as 7-84) | recognition by the Nichols Intact PTH assay ([5]; listed as PTH7-84) | decrease of the increase in FEP04 (phosphaturia) induced by hPTH 1-84 ([1]; co-administration of hPTH 7-84 with hPTH 1-84 (molar ratio 4:1)) | glomerular filtration rate (GFR), treatment period ([1]; hPTH 7-84 given simultaneously with hPTH 1-84 (molar ratio 4:1), increased from 2.1±0.1, N=8, P<0.05) | decrease in plasma calcium ([4]; PTX rats fed a 0.02% calcium diet, 20 μg intraperitoneally in four doses of 5 μg, N=5, P<0.05) | decrease of the calcemic response induced by hPTH 1-84 alone ([4]; hPTH 7-84 given with hPTH 1-84 in a 1:1 molar ratio, PTX rats, N=6, P<0.001) |
| --- | --- | --- | --- | --- | --- | --- | --- | --- | --- | --- | --- | --- | --- |
| hPTH 1-84: Synthetic human PTH 1-84 purchased from Bachem; complete 84 amino acid human parathyroid hormone (SEQ ID NO: 1) (peptide) SVSEIQLMHNLGKHLNSMERVEWLRKKLQDVHNFVALGAPLAPRDAGSQRPRKKEDNVLVESHEKSLGEADKADVNVLTKAKSQ | 1.8 ± 0.1 mL/min | 27.7±2.4% | detected with a high degree of sensitivity | 738±4.13 nmol/well and 738±4.1 nmol/well | increased cAMP production in a does-dependent manner; also recorded: increased cAMP production in a dose-dependent manner | 0.65 ± 0.10 mg/dL |  |  |  |  |  |  |  |
| hPTH 7-84: Synthetic human PTH 7-84 purchased from Bachem; large non-(1-84) PTH fragment, PTH antagonist (PIN) (peptide) peptide: LMHNLGKHLNSMERVEWLRKKLQDVHNFVALGAPLAPRDAGSQRPRKKEDNVLVESHEKSLGEADKADVNVLTKAKSQ |  |  | undetectable |  | no effect |  | does not differentiate | did not discriminate | detects | 50.2% | 2.6 ± 0.2 mL/min | 0.30 ± 0.08 mg/dL | 94% |
